Residue numbers refer to the chain shown, from its start.
T1: MARV Angola GPe (Marburg virus, strain Angola, UniProt Q1PD50 19-648)
T1 construct: extracellular domain; also called Marburg GP (Angola) ectodomain
T1 sequence: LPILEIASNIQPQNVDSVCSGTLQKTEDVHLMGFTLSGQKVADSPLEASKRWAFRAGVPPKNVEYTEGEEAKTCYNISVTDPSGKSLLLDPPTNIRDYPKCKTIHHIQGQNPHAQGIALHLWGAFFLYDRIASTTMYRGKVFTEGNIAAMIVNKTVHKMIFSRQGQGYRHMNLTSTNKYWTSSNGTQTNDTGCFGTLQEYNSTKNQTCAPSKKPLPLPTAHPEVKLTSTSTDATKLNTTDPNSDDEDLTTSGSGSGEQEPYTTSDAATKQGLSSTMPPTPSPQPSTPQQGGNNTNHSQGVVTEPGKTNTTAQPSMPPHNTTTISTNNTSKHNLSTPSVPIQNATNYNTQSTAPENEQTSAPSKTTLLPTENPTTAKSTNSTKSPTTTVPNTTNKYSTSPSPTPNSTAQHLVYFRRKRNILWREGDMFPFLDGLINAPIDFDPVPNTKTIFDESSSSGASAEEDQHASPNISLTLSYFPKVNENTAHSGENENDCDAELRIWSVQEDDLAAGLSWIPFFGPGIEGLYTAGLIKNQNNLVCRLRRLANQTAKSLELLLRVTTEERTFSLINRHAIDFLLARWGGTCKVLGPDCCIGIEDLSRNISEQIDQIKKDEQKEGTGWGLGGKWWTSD

T2: MARV Musoke GPe (Marburg virus, strain Musoke, UniProt P35253 19-648)
T2 construct: extracellular domain; also called Marburg GP (Musoke) ectodomain
T2 sequence: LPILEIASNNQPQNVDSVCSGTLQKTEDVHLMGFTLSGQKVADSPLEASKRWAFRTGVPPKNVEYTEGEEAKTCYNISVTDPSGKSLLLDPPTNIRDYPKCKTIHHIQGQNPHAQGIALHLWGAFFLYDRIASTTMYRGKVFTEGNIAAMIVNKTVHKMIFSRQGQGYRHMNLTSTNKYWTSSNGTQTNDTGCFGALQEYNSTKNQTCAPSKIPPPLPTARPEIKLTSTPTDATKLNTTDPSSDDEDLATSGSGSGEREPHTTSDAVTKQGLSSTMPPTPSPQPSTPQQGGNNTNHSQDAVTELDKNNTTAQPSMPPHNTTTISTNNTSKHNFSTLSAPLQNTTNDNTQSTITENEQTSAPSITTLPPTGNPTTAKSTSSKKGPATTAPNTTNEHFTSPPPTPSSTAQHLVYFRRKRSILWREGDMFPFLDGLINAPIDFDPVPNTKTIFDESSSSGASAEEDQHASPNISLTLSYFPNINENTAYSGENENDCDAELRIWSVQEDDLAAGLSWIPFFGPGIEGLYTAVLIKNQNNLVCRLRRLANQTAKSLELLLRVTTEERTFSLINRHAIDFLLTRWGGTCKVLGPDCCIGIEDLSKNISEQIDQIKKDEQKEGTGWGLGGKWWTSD

T3: MARV Ravn GPe (Marburg virus, strain Ravn, UniProt Q1PDC7 19-648)
T3 construct: extracellular domain; also called Marburg GP (Ravn) ectodomain
T3 sequence: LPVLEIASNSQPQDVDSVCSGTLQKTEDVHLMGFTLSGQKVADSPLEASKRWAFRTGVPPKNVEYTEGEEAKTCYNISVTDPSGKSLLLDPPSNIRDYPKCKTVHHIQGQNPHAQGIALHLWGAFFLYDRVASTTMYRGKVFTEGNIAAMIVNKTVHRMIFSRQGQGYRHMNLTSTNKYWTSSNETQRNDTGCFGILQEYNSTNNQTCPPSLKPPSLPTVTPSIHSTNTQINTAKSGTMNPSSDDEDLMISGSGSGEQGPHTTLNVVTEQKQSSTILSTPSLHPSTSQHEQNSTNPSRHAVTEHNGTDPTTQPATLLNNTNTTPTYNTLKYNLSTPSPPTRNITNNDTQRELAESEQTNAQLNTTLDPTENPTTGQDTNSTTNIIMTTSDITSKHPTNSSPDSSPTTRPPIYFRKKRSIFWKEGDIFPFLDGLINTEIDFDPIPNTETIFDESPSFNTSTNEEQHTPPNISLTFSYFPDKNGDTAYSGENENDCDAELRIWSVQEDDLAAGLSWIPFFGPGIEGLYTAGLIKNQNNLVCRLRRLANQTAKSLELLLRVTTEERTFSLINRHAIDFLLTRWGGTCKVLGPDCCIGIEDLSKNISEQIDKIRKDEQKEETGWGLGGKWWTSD

B1: muCAN30G5 (antibody, V domains shown)
VH: EVQLVESGGGLVQPKGSLKLSCAASGFAFNSYAMHWVCQAPGKGLEWVARIRIKSGNYATSYAGSVTDRFTVSRDDSQNLFYLQMNNLKTEDTAMYYCVREWEGAMDYWGQGTSVTVSS
VL: DIVLTQSPLSLPVSLGDQASISCRSSQSLVHSNGNTYLHWYLQKPGQSPNLLIYKVSNRFSGVPDRFSGSGSGTDFTLKISRVEAEDLGVYFCSQSTHVPWTFGGGTKLEIK
notes: also called murine CAN30G5
B2: huCAN30G5 (antibody, V domains shown)
VH: B1 VH with K15G, C38R, P41S, T67K, D68G, Q78K, L80T, N87S, S114L
VL: B1 VL with S14T, D17Q, Q18P, L42Q, K44R, N50R, L88V, F92Y, L109V
notes: also called humanized CAN30G5
B3: huCAN40G1 (antibody, V domains shown)
VH: EVQLQQSGPEVKKPGASVKVSCRTSGYTFTEYTIHWVKQAPGKGLEWIGGINPNHGGTLYNQKFKGRVTLTVDKSSSTAYMELSRLRSDDTAVYYCARFTYDYWGQGTLVTVSS
VL: DIVLTQSPASLAVSLGERATISCKASQSVDHDGDSYMNWYQQKPGQPPKLLIYATSNLESGIPARFSGSGSGTDFTLTISSLQAEDVATYYCQQSYEVPLTFGAGTKLEIK
notes: also called humanized CAN40G1
B4: muCAN40G1 (antibody, V domains shown)
VH: EVQLQQSGPELVKPGASVKISCRTSGYTFTEYTIHWVKQSRGKSLEWIGGINPNHGGTLYNQKFKVKATLTVDKSSSTAYMELRSLTSEDSAVYYCARFTYDYWGQGTTLTVSS
VL: B3 VL with E17Q, T20S, T78N, S80H, S81P, L82V, Q83E, A84E, V87A, I110L
notes: also called murine CAN40G1
B5: muCAN54G2 (antibody, V domains shown)
VH: QVQLQQSGTELVRPGTSVKISCKASGYDFTNFWLGWIKQRPGHGLEWIGDIYPGGDNTYYNEKFKGKVTLTADKSSNTAYMQFSSLTSEDSAVYFCFMILYTLDYWGQGTSVTVSS
VL: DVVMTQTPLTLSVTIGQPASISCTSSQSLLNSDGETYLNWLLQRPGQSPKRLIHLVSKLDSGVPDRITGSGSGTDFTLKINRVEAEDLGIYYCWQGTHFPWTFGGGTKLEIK
notes: also called murine CAN54G2
B6: huCAN54G2 (antibody, V domains shown)
VH: QVQLQQSGTEVKKPGASVKVSCKASGYDFTNFWLGWIRQAPGQGLEWIGDIYPGGDNTYYNEKFKGRVTLTADKSSNTAYMELSSLRSEDTAVYFCFMILYTLDYWGQGTLVTVSS
VL: DVVMTQTPLTLPVTLGQPASISCTSSQSLLNSDGETYLNWLLQRPGQSPKRLIHLVSKLDSGVPDRFSGSGSGTDFTLKISRVEAEDVGVYYCWQGTHFPWTFGGGTKVEIK
notes: also called humanized CAN54G2

Biological target: T1, MARV Angola GPe
Experiment: ELISA on coated GPe (200 ng/well)

B1: no binding.
B2: no binding.

Biological target: T2, MARV Musoke GPe
Experiment: ELISA on coated GPe (200 ng/well)

B1: no binding.
B2: no binding.

Biological target: T1, MARV Angola GPe
Experiment: ELISA, GP coated 200 ng/well, mAb at 2 ug/mL

Compared with B3, B4 is lower in “OD405 @ 30 min” value: 3.83 OD405 for the first, 0.857 OD405 for the second.

Going from B5 to B6, the “OD405 @ 30 min” value rises from 0.15 OD405 to 0.502 OD405.

Biological target: T3, MARV Ravn GPe
Experiment: ELISA, GP coated 200 ng/well, mAb at 2 ug/mL

Compared with B3, B4 is lower in “OD405 @ 30 min” value: 2.75 OD405 for the first, 0.504 OD405 for the second.

First: B1
Second: B2
The “OD405 @ 30 min” value of the first is lower: 0.16 OD405 for the first, 2.74 OD405 for the second.

First: B5
Second: B6
The “OD405 @ 30 min” value of the first is lower: 0.16 OD405 for the first, 0.89 OD405 for the second.

Biological target: T2, MARV Musoke GPe
Experiment: ELISA, GP coated 200 ng/well, mAb at 2 ug/mL

Going from B3 to B4, the “OD405 @ 30 min” value falls from 2.73 OD405 to 0.536 OD405.

Going from B5 to B6, the “OD405 @ 30 min” value rises from 0.185 OD405 to 0.908 OD405.

Reference: US20180030118A1 (EMERGENT BIOSOLUTIONS CANADA, published 2018)
